According to patent US20260125649A1, “MEDIUM COMPOSITION AND METHOD FOR CULTURING MESENCHYMAL STEM CELLS” (ACADEMIA SINICA, priority 2018, published 2026):

System: EpICD binding to the Oct4 promoter
Assay: ChIP of EpICD binding to the Oct4 promoter
Format: cell-based, human
Conditions: EpEX 3 μg/mL, ChIP-qPCR
Procedure: FIG. 12. EpEX increases the binding of EpICD to the promoter of Oct4 by inhibiting let7. (A) MSCs were transfected with let7 inhibitor or mimetics then treated with EpEX (3 μg/mL). Binding of EpICD to the Oct4 promoter was examined by chromatin immunoprecipitation (ChIP). EpICD was pulled down by a specific anti-EpICD antibody. The cross-linked DNA was isolated and then probed by qPCR with specific primers for the Oct4 promoter. (B) MSCs were transfected with let7 inhibitor or mimetics then treated with EpEX (3 μg/mL). Binding of EpICD-HMGA2 was examined by sequential ChIP. EpICD was pulled down by a specific anti-EpICD antibody, followed by pull-down with a HMGA2 antibody. To detect bound Oct4 promoter, the cross-linked DNA was isolated and then amplified by qPCR with specific primers.
We performed chromatin immunoprecipitation (ChIP) with the Pierce™ Magnetic ChIP Kit (Thermo Fisher Scientific), to according the manufacturer's instructions. In brief, the protein-DNA complexes were cross-linked with 1% formaldehyde and quenched by adding glycine to a final concentration of 200 mM. […]
The immunoprecipitated DNA was recovered by a PCR purification kit (Thermo Fisher Scientific), and the purified DNA was subjected to real time quantitative PCR for further analysis. Immunoprecipitation/input was calculated for each gene and each gene was further normalized to the level of mouse β-actin promoter. […]

binding of EpICD to the promoter of Oct4: increases
B1: EpEX: extracellular domain of human EpCAM, 265 amino acids in length (SEQ ID NO: 2) (protein, listed as Homo sapiens)
chain: MAPPQVLAFGLLLAAATATFAAAQEECVCENYKLAVNCFVNNNRQCQCTSVGAQNTVICSKLAAKCLVMKAEMNGSKLGRRAKPEGALQNNDGLYDPDCDESGLFKAKQCNGTSMCWCVNTAGVRRTDKDTEITCSERVRTYWIIIELKHKAREKPYDSKSLRTALQKEITTRYQLDPKFITSILYENNVITIDLVQNSSQKTQNDVDIADVAYYFEKDVKGESLFHSKKMDLTVNGEQLDLDPGQTLIYYVDEKAPEFSMQGLK
